Measured values published in patent US9289506B2, “Surface binding of nanoparticle based drug delivery to tissue” (Massachusetts Institute of Technology, priority 2013, dated 2016).

What was measured:
[1] = Non-equilibrium diffusive transport across cartilage disks (transport cell); type: in vitro ADME, bovine; settings: 400 μm thick disks, 20° C.
Experimental: Real-time measurement of diffusive transport of Avidin and NeutrAvidin through young bovine cartilage disks (with intact superficial zone) was measured using a diffusion chamber consisting of two compartments as described previously (Garcia et al., Arch Biochem Biophys, 2003). Groups of three cartilage disks (6 mm diameter, 400 μm thick) were clamped by O-rings between the two compartments of the diffusion chamber (with total exposed tissue area for transport of 0.28 cm^2/disk), such that solute transport from the upstream compartment into and across the cartilage disks, simultaneously, could occur only from the superficial zone of the cartilage (schematic shown in the inset of FIG. 14). The compartments were treated with casein to prevent non-specific adsorption of solutes to the chamber surfaces. […] Aliquots were taken from each chamber at different time intervals, and fluorescence was measured using a plate reader.
The compartment volume of 25 ml is approximately 1,000× larger than the volume of the cartilage plugs in the configuration of FIG. 14 (inset). […] This configuration thereby focuses on quantitation of steady state solute flux and assessment of effective solute diffusivity within cartilage. […]
[formula] where δ is the thickness of the cartilage disk (˜400 μm). DEFF for Avidin was calculated to be 3.8×10^−7 cm^2/s. […]

[2] = Dose dependent biological response to Avidin in bovine cartilage explants (viability, sGAG loss, biosynthesis); type: cell-based
Experimental: Briefly, cylindrical cartilage disks (3 mm) were cored using a dermal punch and then sliced to obtain the top 1 mm of cartilage with intact superficial zone. Cartilage disks for all treatment groups were matched for depth and location along the joint surface. They were equilibrated in serum free medium (low glucose Dulbecco's Modified Eagle's Medium [DMEM; 1 g/L]) supplemented with 10 mM HEPES buffer, 0.1 mM nonessential amino acids, 0.4 mM proline, […] ascorbic acis, 100 units/ml penicillin G, 100 µg/ml streptomycin and […] amphotericin B (all from Sigma Aldrich, MO) for 48 h in a 5% CO2 incubator at 37° C. prior to any treatment. […] The medium was changed every 2 days without replenishing Avidin. This simulated the in-vivo condition of one time Avidin injection. The experiment was conducted for three time periods: 2, 4 and 10 days. Upon termination of culture at these time points, 100-200 μm thick slices were cut from the center of disks from each treatment condition. The slices were immediately stained for 2-3 minutes in the dark with fluorescein diacetate (FDA; 4 mg/ml in PBS) and propidium iodide (PI; 40 mg/ml in PBS) (both from Sigma Aldrich, MO). FDA was used to stain the viable cells green, while PI stained the non-viable cells red. The slices were washed with PBS and then imaged using Nikon fluorescence microscope with a 4× objective. Two days before the termination of culture of day 4 and day 10 experiments, the medium was supplemented with 5 μCi/mL [^35S]-sulfate and 10 μCi/mL [^3H]-proline (both from PerkinElmer, Norwalk, Conn.). […] The wet weight was measured for each disk and then digested with proteinase K (Roche, Indianapolis, Minn.) overnight. The cumulative sGAG content in the medium and digested explants was measured using the DMMB assay. The amount of radiolabel in each digested sample and medium standards (^35S and ^3H) were measured using a liquid scintillation counter. Radiolabeled concentration was calculated from the standards and then normalized to the wet weight.

Avidin: positively charged globular glycosylated tetrameric protein, pI 10.5, 66 kDa, diameter ~7 nm (Invitrogen); SEQ ID NO 1
time lag τlag to achieve the steady state flux [1]: ~35 min | cumulative sGAG loss to medium vs untreated control ([2]; 100 nM and 1 μM, 4 and 10 days): no significant difference | cumulative sGAG loss to medium ([2]; 100 μM, 4 days): 14.6% | cumulative sGAG loss to medium ([2]; 100 μM, 10 days): 20% | increase in sGAG loss compared to untreated control ([2]; 100 μM, both 4 and 10 days): about 2 folds | rate of protein and sGAG synthesis ([2]; increasing dose 0-100 μM, last 48 h of culture): no significant changes | chondrocyte viability (live-dead fluorescence) ([2]; one time dose 0-100 μM, 2, 4 and 10 days): no significant difference in cell viability | safe dose ([2]; one time dose, bovine cartilage explants): at least 1 μM
